In the test the target is reference 3D7 ctCSP peptide (P. falciparum 3D7). Put plainly: SPR. Background: In SPR one partner is held on a chip, and binding of the other changes the refractive index at the surface.

For five molecules, Kd results are on record in paper PMC8989322 (2022).

B1: mAb236 (antibody, V domains shown)
VH: EVQLVESGGGLVQPGGSLRLSCVASGFNFTTYSMNWVRQAPGKGLEWVSYISSHSNLIYYATSVKGRFTISRDNAKNSLYLQMNSLRAEDTALYYCARGGSLHPSAGADWIDPWGQGTLVTVSS
VL: SYELTQAPSVSVSPGQTATITCSGDKLGDKFTSWYQQKPGQSPVLVIYQDSKRPSGIPERFSASNSGNTATLTISGTRAMDEADYYCQAWDSNTYVFGTGTRVAVL
Usually Kd stands for a measure of binding affinity in units of concentration. Lower therefore signals higher affinity. Regarding B1, binding was characterised by a dissociation constant (Kd) of 0.00278 nM.

B2: mAb352 (antibody, V domains shown)
VH: EVQLVESGGGLVKPGGSLRLSCAASGFSFSEYRMNWVRQAPGKGLEWVSFISSSGTYIDYADSVKGRFTISRDNVNNSLYLQMNNLRAGDTAVYYCARGMGIAVRRFDYWGQGTLVSVSS
VL: SYVLTQPPSVSVAPGQTAKITCGGNNIGSESVHWYQQKPGQAPVLVVYDDAVRPSGIPERFSGSNSRNTATLTISRVEAGDEAAYYCQVWDSSTVASFGGGTKLTVL
For B2, binding was characterised by a dissociation constant (Kd) of 0.0116 nM.

B3: mAb1512 (antibody, V domains shown)
VH: KVQLVQSGGGVVQPGRSQRLSCAASGLTLSEYAMHWVRQAPGKGLEWVAVILSDGTKKEYADSVKGRFTISRDNSKNTLYLQMNSLRAEDTAVYYCATDDNILGHCRSKSCQRNYYHGMDVWGQGTTVSVSS
VL: DIVMTQSPLSLPVTPGEPASISCRSSQSLLHSNGKNYLDWYLQKPGQSPQLLIYLGSDRASGVPDRFSGSGSGTDFTLSISRVEAEDVGVYYCMQALQTPFTFGPGTKVDIK
In the case of B3, binding was put at a Kd of 0.0291 nM.

B4: mAb1488 (antibody, V domains shown)
VH: EVHLVESGGGLVKPGGSLRLSCAASGFTFSSYTMNWVRQAPGKGLEWVSSISSSSTYIYYADSVRGRFTISRDNAKNSLYLQMNSLRAEDSAVYYCARRAGGFDAYYFDYWGQGTLVTVSS
VL: not shown
For the molecule B4, binding was put at a Kd of 0.36 nM.

B5: mAb234 (antibody, V domains shown)
VH: EVQLVESGGGLVKPGGSLRLSCAASGFNFSTHIMNWVRQAPGKGLEWVSSISSSGTYIYYADSMKGRFTISRDNPKNSLYLQMNSLRAEDTAVYYCARARGFIQFHYYMDVWGKGTTVAVSS
VL: SYVLTQPPSVSVAPGKTARITCGGNNIGSKSVHWHQQRPGQAPVLVVYDDKIRPSGIPERFSGSNSGNTATLIISRVEAGDEADYYCQVWHSSSDPVVFGGGTKLTVL
Take B5: the Kd is 0.00377 nM.
